Assay results from US20220127365A1 (DREN BIO, published 2022).
Positions count from the first letter of the chain named.

T1: human CD94 (human, UniProt Q13241 1-179)
T1 sequence (looked up): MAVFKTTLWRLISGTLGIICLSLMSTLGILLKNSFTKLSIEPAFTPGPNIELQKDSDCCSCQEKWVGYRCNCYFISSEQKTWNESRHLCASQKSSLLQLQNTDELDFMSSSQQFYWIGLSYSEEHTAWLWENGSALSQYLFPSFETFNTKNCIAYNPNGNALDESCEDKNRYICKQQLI

B1: 18H3-KIF (antibody, V domains shown)
VH: EVQLVQSGAEVKKPGESLKISCKGSGYRFTSYWIGWVRQMPGKGLEWMGIIYPGDSDTRYSPSFQGQVIISADKSITTAFLQWSSLKASDTAMYYCARPFDYGGSPGYFDYWGQGTLVTVSS
VL: DIQMTQSPSTLSASVGDRVTITCRASQSIRSWLAWYQQKPGKAPKLLIYKASSLESGVPSRFSGSGSGTEFTLTISSLQPDDFATYYCQQYNTFWTFGQGTKVEIK
B2: anti-CD94 antibody ATX-125 (antibody, human IgG1, V domains shown)
VH: QVQLQQSGPGLVKPSETLSLTCTVSGGSISSIIYYWGWIRQPPGKGLEWIGSIYYSGSTYYNPSLKSRVTISVDTSKNQFSLNLSSVTAADTAVYYCARLPLTGEFAFDIWGQGTMVTVSS
VL: EIVLTQSPATLSLSPGERATLSCRASQSVSTYLAWFQQKPGQAPRLLIYGASSRATGIPDRFSGSGSGTDFTLTISRLEPEDFAVYYCQQYGSSPITFGQGTRLEIK
B3: anti-CD94 antibody ATX-126 (antibody, human IgG1, V domains shown)
VH: QVQLQESGGGLVQPGGSLKLSCAASGFTFSSYSMNWVRQAPGKGLEWVSSISTSSNFIYYADSVKGRFTISRDNSKNTLYLQMNSLRAEDTAVYYCVRDMGPFYSFYYMDVWGNGTTVTVSS
VL: DIQVTQSPATLSLSPGERATLSCRASQSVSSSYLAWYQQKPGQAPRLLIYGASNRATGIPARFSGSGSGTDFTLTISSLQPEDFATYYCLQHNSYPPTFGGGTKVDIK
B4: anti-CD94 antibody ATX-128 (antibody, V domains shown)
VH: QVQLQESGGGLVQPGGSLKLSCAASGFTFSGSTIQWVRQASGKGLEWVGRIRSKANSYATASAASVKGRFTISRDDSKNMAYLQMNSLKTEDTAVYYCTREGLGYYNVGYYYFYMDVWGKGTTVTVSS
VL: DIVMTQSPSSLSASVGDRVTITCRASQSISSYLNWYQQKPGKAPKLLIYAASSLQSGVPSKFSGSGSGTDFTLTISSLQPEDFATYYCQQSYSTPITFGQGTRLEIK
B5: anti-CD94 antibody ATX-124 (antibody, human IgG1, V domains shown)
VH: QVQLVQSGAEVKKPGASVKVSCKASGYTFTSYGISWVRQAPGQGLEWMGWISAYNGNTNYAQKLQGRVTMTTDTSTSTAYMEVRSLRSDDTAVYYCARDRGRFGELFFDHWGQGTLVTVSS
VL: DIVMTQSPSSVSASVGDRVTITCRASQGISNYLAWYQQKPGKAPKLLIYAASSLQSGVPSRFSGSGSGTDFTLTISSLQPEDFATYYCLQHNSYPFTFGPGTKVDIK
B6: anti-CD94 antibody ATX-122 (antibody, V domains shown)
VH: B5 VH with V18L, I34V, M48V, A53P, Q62H, K63N, T69A, V83L, T91M, H110Y
VL: B5 VL
notes: Detected with an anti-human secondary antibody
B7: anti-CD94 antibody ATX-123 (antibody, human IgG1, V domains shown)
VH: B5 VH with L64F, S77N, V83L, F107L, F108S, H110Y
VL: B5 VL
B8: anti-CD94 antibody ATX-129 (antibody, human IgG1, V domains shown)
VH: EVQLVQSGGGLVQPGGSLRLSCAASGFTFSSYWMSWVRQAPGKGLEWVANIKQDGSAKYYVDSVKGRFTISRDNAKNSLYLQMNSLRAEDTAVYYCARGYYFDYWGQGTLVTVSS
VL: EIVLTQSPSTLSASVGDRVTITCRVSQGISSYLNWYRQKPGKVPKLLIYAASSLQSGVPSRFSGSGSGTDFTLTISSLQPEDFATYYCQQSYSTPITFGQGTRLEIK
B9: anti-CD94 antibody ATX-127 (antibody, human IgG1, V domains shown)
VH: QVQLQQSGPGLVKPSGTLSLTCAVSGGSISSRYWWTWVRQPPGKGLEWIGEIYHSGTTNYNPSLESRVTISVDKSKNQFSLKVSSVTAADTAVYYCARSPNWGYYYYYMDVWGKGTTVTVSS
VL: EIVMTQSPATLSVSPGERATLSCRASQSVSSSYLAWYQQKPGQAPRLLIYGASSRATGIPDRFSGSGSGTDFTLTISRLESEDFAVYYCQQYGRSLTFGGGTKVEIK
B10: anti-CD94 antibody 1M4 (antibody, V domains shown)
VH: QLVESGGGLVQPGGSLRLACAASGFTFSNYAMNWVRQAPGKGLEWVSVISGSGDTTYCADSVKGRFTISRDNSKNTLHLQLNSLRAEDTAVYYCAKNCYGSGSYYNHFDYWGQGTLVTVSS
VL: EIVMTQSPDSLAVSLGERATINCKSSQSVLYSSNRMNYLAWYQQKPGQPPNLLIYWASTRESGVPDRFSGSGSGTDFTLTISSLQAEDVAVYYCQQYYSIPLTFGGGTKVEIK
B11: anti-CD94 antibody 1E4 (antibody, V domains shown)
VH: QVTLRESGPALVKPTQTLTLTCTFSGFSLSTSDLCVSWIRQPPGKALEWLALIDWNDDKYYSTSLQTRLTISKDTSKNQVVLTMTNMDPVDTATYYCARTIAAAGPYDAFDIWGQGTMVTVSS
VL: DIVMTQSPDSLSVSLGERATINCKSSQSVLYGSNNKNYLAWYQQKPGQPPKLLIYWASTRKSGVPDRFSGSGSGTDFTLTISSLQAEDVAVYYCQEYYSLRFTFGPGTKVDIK
notes: Hybridoma antibody from ATX-Gx Alloy transgenic mice; also called fucosylated 1E4

What follows are binders tested against T1, human CD94 (assay: cell-based or functional assay).

| IC50 of CLPD-NK leukemic cell depletion, ADCC assay with CLPD-NK patient PBMCs [µg/mL] | IC50 of NK cell depletion, ADCC assay with healthy donor PBMCs [µg/mL] | Binder |
| --- | --- | --- |
| 0.059 | 0.02 | B1 |

Each binder was assayed against T1, human CD94 (assay: flow cytometry titration (100 nM to 0.046 nM) on healthy-donor PBMCs, CD3-CD56bright NK cells; column 'Affinity on human NK cells (nM)').

| EC50 [nM] | Binder |
| --- | --- |
| 4.63 | B2 |
| 2.52 | B3 |
| 0.32 | B4 |
| 10 | B5 |
| 27 | B6 |
| 1.12 | B7 |
| 2.8 | B8 |
| 0.31 | B9 |

What follows are binders tested against T1, human CD94 (assay: HLA-E tetramer blocking on healthy-donor PBMCs, flow cytometry; competitor HLA-E tetramer).
Procedure: (§1) Healthy donor PBMCs were seeded in 96-well plates at a density of 100,000 cells per well, incubated with human Fc block (Biolegend) and cell viability dye (Thermo Fisher) for 30 minutes on ice and protected from light. The cells were washed once with FACS buffer (PBS with 2% IgG low FBS). anti-CD94 antibodies at EC80 concentrations were incubated with cells for 30 minutes on ice and protected from light. After incubation with the anti-CD94 antibodies, the cells were washed and incubated with HLA-E tetramer PE (Creative Biolabs), anti-CD3 pacific blue-labelled, and anti-CD56 FITC-labelled antibodies (Biolegend) for 30 minutes on ice and protected from light. The cells then received a final wash in FACS buffer before quantification on the Cytoflex (Beckman Coulter). All data acquisition and fluorescence compensation were performed using CytoFlex (Beckman Coulter, Atlanta, Ga.). Data analysis was performed using FlowJo software. NK cells were identified through gating on lymphocytes on the forward and side scatter, followed by doublet and dead cell exclusion, and gated on the CD3−CD56+ population. HLA-E expression was then quantified on the CD3−CD56+NK cell population. Percent blocking was calculated as 100−((percent HLA-E positive for anti-CD94 antibody)/(percent HLA-E positive for isotype)*100).
Healthy donor PBMCs were incubated with anti-CD94 antibodies. PE labeled HLA-E tetramer was then incubated with cells and antibody mixture and detected by flow cytometry.
Percent blocking was calculated as 100−((percent HLA-E positive for anti-CD94 antibody)/(percent HLA-E positive for isotype)*100). If an antibody blocked more than 20% of HLA-E binding, it was considered a ligand-blocking antibody.

| percent HLA-E blocking [%] | Binder |
| --- | --- |
| 11 | B2 |
| 0 | B3 |
| 10 | B4 |
| 18 | B5 |
| 0 | B6 |
| 39 | B7 |
| 96 | B8 |
| 77 | B9 |

The binders below were run against T1, human CD94 (assay: table column 'HLA-E blocking'; flow cytometry on NK cells of healthy donor PBMCs, antibody at saturating concentration, blocked ligand PE labeled HLA-E tetramer; percent blocking = 100-((percent HLA-E positive with antibody)/(percent HLA-E positive with isotype)*100)).
Procedure: FIGS. 4A & 4B show the results of HLA-E tetramer blocking assays performed with anti-CD94 and commercially available anti-CD94 antibodies using flow cytometry. Healthy donor PBMCs were incubated with anti-CD94 antibodies. PE labeled HLA-E tetramer was then incubated with the cell and antibody mixture, and detected using flow cytometry. For HP-3B1, 131412, 12K45, DX22, 1M4 and 1E4, 2.5 μl of HLA-E tetramer reagent was used, while 5 μl was used for 18H3 and HP-3D9. Saturating concentrations of each antibody was used in this assay. The percent blocking was calculated as 100−((percent HLA-E positive for anti-CD94 antibody)/(percent HLA-E positive for isotype)*100).
as §1

| HLA-E blocking [%] | Binder |
| --- | --- |
| 0 | B10 |
| 0 | B11 |

Each binder was assayed against T2, cynomolgus CD94 (cynomolgus monkey) (assay: flow cytometry on HEK293 cells overexpressing cynomolgus CD94; unconjugated antibody in a dilution series, Alexa Fluor 647 anti-human secondary antibody).
T2 construct: whole, on cells; The construct expressed in HEK293 cells is not described further; also called cyno CD94; cynomolgus monkey CD94
Procedure: For human NK cell binding, PBMCs were freshly isolated from healthy donors and incubated with unconjugated antibodies in a dilution series from 100 nM to 0.046 nM. Secondary anti-human antibody labeled with Alexa Fluor 647 was used to detect binding on CD3−CD56bright NK cells. For cynomolgus CD94 binding, HEK293 cells overexpressing cynomolgus CD94 were incubated with unconjugated antibodies in a dilution series from 100 nM to 0.046 nM. Secondary anti-human antibody labeled with Alexa Fluor 647 was used to detect binding on the cells.

| EC50 (read off the curve) [nM] | Binder |
| --- | --- |
| ~2 | B2 |
| ~2 | B3 |
